From PMC2927863 come the findings set out here.

The target of one data set is T1, GST-NHR-6 (C288S) (Caenorhabditis elegans, UniProt P41829 260-619, C288S).
T1 sequence: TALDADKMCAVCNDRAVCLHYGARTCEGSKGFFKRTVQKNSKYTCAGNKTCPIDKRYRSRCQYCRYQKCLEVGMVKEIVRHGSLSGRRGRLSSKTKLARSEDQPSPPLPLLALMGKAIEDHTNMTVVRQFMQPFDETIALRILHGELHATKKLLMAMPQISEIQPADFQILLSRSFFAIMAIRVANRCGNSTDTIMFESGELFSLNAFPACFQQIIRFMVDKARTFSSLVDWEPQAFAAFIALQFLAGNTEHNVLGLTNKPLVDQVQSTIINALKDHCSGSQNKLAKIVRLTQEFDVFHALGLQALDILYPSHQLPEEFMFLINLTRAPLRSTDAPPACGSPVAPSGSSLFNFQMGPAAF
The experiment in a line: EMSA.

The target of data set [1] is T2, GST-NHR-6 (DBD+LBD) (Caenorhabditis elegans, UniProt P41829 260-619).
T2 sequence: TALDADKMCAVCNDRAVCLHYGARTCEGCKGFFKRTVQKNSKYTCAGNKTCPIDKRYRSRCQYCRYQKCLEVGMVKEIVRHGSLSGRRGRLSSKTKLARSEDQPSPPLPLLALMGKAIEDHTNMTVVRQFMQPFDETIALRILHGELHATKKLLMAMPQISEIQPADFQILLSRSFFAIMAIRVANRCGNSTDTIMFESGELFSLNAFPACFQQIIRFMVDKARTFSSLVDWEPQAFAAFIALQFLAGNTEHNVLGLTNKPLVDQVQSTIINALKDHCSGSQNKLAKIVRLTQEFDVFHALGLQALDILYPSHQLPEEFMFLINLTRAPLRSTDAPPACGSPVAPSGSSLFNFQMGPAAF
In words: EMSA.

Data set [2] deals with T2, GST-NHR-6 (DBD+LBD). In words: competition.

B1: NBRE 26-mer (dsDNA)
DNA 1: GAGTTTTAAAAGGTCATGCTCAATTT
DNA 2: AAATTGAGCATGACCTTTTAAAACTC
Take B1: the binding result is “no binding” in the data set with GST-NHR-6 (C288S) and “binds” in the data set with GST-NHR-6 (DBD+LBD) [1].

B2: mutant NBRE 26-mer (dsDNA)
DNA 1: GAGTTTTACCAGGTCATGCTCAATTT
DNA 2: AAATTGAGCATGACCTGGTAAAACTC
In the case of B2, in the data set with GST-NHR-6 (DBD+LBD) [2], the binding result is “no binding”.
